US20250197451A1 (CAPITAL MEDICAL UNIVERSITY SCHOOL OF STOMATOLOGY, published 2025)

The binders below were run against T1, biotin-labelled EZH2 protein (UniProt Q15910 1-746, limits assumed, biotin label (EZ-link NHS-PEO4-Biotinylation kit)) (assay: KDM2B peptide array probed with biotin-EZH2 1 ug/ml, SA-HRP/ECL;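 also: Background-corrected optical density of each spot on the membrane, given as percent of the brightest spot (100%), color developed for 5 minutes; 100% is the highest background-corrected spot optical density on the membrane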).
T1 construct: Probe in solution (1 ug/ml) on the KDM2B peptide microarray; also called NHS-PEO4-Biotinylation-labelled EZH2 protein; recombinant protein
T1 sequence (Q15910 whole entry): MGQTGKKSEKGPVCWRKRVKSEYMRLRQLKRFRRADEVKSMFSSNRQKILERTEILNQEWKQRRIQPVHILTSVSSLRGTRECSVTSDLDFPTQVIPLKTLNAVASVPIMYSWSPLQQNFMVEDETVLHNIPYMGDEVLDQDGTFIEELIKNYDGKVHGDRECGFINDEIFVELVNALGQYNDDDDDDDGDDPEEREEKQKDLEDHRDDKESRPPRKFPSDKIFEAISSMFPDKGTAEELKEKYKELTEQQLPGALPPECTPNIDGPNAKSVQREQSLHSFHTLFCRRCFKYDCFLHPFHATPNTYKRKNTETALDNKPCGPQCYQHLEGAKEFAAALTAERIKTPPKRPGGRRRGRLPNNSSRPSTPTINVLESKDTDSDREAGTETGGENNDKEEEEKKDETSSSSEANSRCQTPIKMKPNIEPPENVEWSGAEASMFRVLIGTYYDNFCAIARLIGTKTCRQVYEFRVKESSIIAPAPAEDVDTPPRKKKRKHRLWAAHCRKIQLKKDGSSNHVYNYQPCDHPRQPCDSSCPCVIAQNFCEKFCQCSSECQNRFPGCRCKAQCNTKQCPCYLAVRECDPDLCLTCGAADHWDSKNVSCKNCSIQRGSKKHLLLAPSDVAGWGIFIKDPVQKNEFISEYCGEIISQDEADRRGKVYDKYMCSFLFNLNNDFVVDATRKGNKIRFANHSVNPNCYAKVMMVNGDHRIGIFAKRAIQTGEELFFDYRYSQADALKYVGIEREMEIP
Protocol: After blocking, the polypeptide microarray was incubated with biotin-labeled target protein for hybridization, visualized with the chemical chromogenic substrate and imaged using a Chempchemi digital imager. The image of colored polypeptide microarray was analyzed for the optical density of the colored points. Particularly, the optical density of each colored point was calculated using the optical density of the respective surrounding background as a reference for background correction. The highest optical density value of the colored point on membrane was set to 100%, and the optical density value of the remaining colored points was converted into percentages relative to the highest value. The points with an optical density percentage of more than 30% on the polypeptide membrane and also with an optical density percentage of less than 30% on the negative membrane were defined as positive colored points.
For the hybridization experiment, a solution of NHS-PEO4-Biotinylation-labelled EZH2 protein (1 μg/ml) was used for the hybridization of the polypeptide microarray. Streptavidin-HRP was used to amplify the reaction signal according to the experimental procedure and conditions described above, and the time of color development was 5 minutes.

Binder	Intensity (%)
WTHLTEFELKGLKAL [peptide 102]	0
TRCRKCEACLRTECG [peptide 123]	97.3
EVSAKWTHLTEFELK [peptide 101]	2.69
GFKYASNLPGSLLKE [peptide 148]	0
DELPNCWECPKCNHA [peptide 143]	0
GSPATEVSAKWTHLT [peptide 100]	0
RTTAGARRRRTRCRK [peptide 121]	1.31
RTECGECHFCKDMKK [peptide 125]	1.57
CNEIIHPGCLKIKES [peptide 139]	85.1
ARRRRTRCRKCEACL [peptide 122]	100
SLPENKKCVPEGIED [peptide 106]	3.77
ECHFCKDMKKFGGPG [peptide 126]	6.05
LSDVEEIVSVRGFSL [peptide 12]	0.13
VLKEHADDDPSLAIT [peptide 111]	0.99
KIKESEGVVNDELPN [peptide 141]	10.8
KKCVPEGIEDPQALL [peptide 107]	0
FGGPGRMKQSCIMRQ [peptide 128]	0
CIAPVLPHTAVCLVC [peptide 131]	100
CWECPKCNHAGKTGK [peptide 144]	0
GEAGKEDTVEEEEGK [peptide 134]	0
EEKLRSQLYQGDFVH [peptide 15]	0
VEKLESLPENKKCVP [peptide 105]	20.3
EGIEDPQALLEGVKN [peptide 108]	0
LPHTAVCLVCGEAGK [peptide 132]	100
DNKEGQEPAKRRSEC [peptide 152]	97.8
MAGPQMGGSAEDHPP [peptide 1]	0.25

Binder	Intensity (%)
TWPKKTPKNRAVGRP [peptide 115]	0
ADDDPSLAITGVPVV [peptide 112]	0
EEEGKFNLMLMECSI [peptide 136]	0
MECSICNEIIHPGCL [peptide 138]	26.8
DRQRYDENEDLSDVE [peptide 10]	0
QEPAKRRSECEEAPR [peptide 153]	41.6
CEACLRTECGECHFC [peptide 124]	0
PQALLEGVKNVLKEH [peptide 109]	0
HPGCLKIKESEGVVN [peptide 140]	0
FNLMLMECSICNEII [peptide 137]	0.24
GVPVVTWPKKTPKNR [peptide 114]	0
EGVKNVLKEHADDDP [peptide 110]	0
QKMNRDNKEGQEPAK [peptide 151]	100
SLAITGVPVVTWPKK [peptide 113]	1.55
GLKALVEKLESLPEN [peptide 104]	8.01
QKRGPGFKYASNLPG [peptide 147]	0
TPKNRAVGRPKGKLG [peptide 116]	0
PASAVKLAANRTTAG [peptide 119]	0
AVGRPKGKLGPASAV [peptide 117]	0
DENEDLSDVEEIVSV [peptide 11]	0
KGKLGPASAVKLAAN [peptide 118]	0
RMKQSCIMRQCIAPV [peptide 129]	9.37
EGVVNDELPNCWECP [peptide 142]	100
EFELKGLKALVEKLE [peptide 103]	4.44
VCLVCGEAGKEDTVE [peptide 133]	12
KLAANRTTAGARRRR [peptide 120]	0
